Reference: patent publication US7892803B2, “Gene and uses therefor to modify pasture qualities of crops” (Commonwealth Scientific and Industrial Research Organisation, priority 2001, dated 2011)

Key:
[1] = LAR enzyme activity of recombinant LAR protein in E. coli extracts (radio-HPLC); format: biochemical; details: bacterial protein extracts after induction, HPLC system IIa
Method: LAR was assayed essentially as described by Tanner and Kristiansen (1993). The standard assay contained in total volume of 100 μl assay buffer containing 10 mg glycerol, 10 μmol NaPi, 0.5 μmol NADPH, 0.1 μmol DDT, all adjusted to pH7 with NaOH, 0.25 nmol [^3H]-3,4-cis-leucocyanidin (1 μCi), or other suitable flavan-3,4-diol substrate (Table 2), and enzyme extract. The assay was initiated by the addition of an appropriate amount of enzyme extract and incubated at 30° C. for 30 min. The incubation was terminated by extraction with 0.2 ml ethyl acetate containing 10 nmol of unlabelled catechin as carrier. The ethyl acetate extracts were dried under a stream of nitrogen at room temperature. The residue was dissolved in 100 μl of water and analyzed by radio-HPLC using system II (see above and Table 2). In each radio-chromatogram of the assay mixtures derived from the leaf extracts referred to herein, only the substrate, 3-4-cis-leucocyanidin, or the product, catechin were detected.
The complete amino acid coding sequence of the LAR cDNA was introduced into the BamHI site of the pET3a expression vector to express the LAR382 polypeptide containing the 14 amino acid N-terminal T7 Tag. The resultant expression construct was then introduced into E. coli strain Rosetta(DE3) RARE/pLysS.
A truncated form of LAR comprising amino acids 1-317 was also introduced into the BamHI and HindIII sites of pQE30 expression vector to express the LAR317 polypeptide containing the 10 amino acid N-terminal RGS-6×His epitope. The resultant expression construct was then introduced into E. coli strain XL1 Blue.
Expression of the full length recombinant LAR382 protein, or the truncated form LAR317, was induced as described in the preceding Example. Bacterial protein extracts were assayed for LAR enzyme activity, essentially as described in Example 1.

[2] = Storage stability of partially purified LAR enzyme preparation; format: physicochemical; details: 2,360 fold purified concentrate mixed with equal volume of glycerol, stored at −20 C
Method: Fractions with LAR activity were combined and then concentrated to a final volume of 1 ml by applying nitrogen over a YM10 membrane (Amicon). The concentrate was mixed with an equal volume of glycerol and stored at −20 C.
The final yield of enzyme activity was 8.7% and purification was 2,360 fold.

| Molecule | LAR enzyme activity (reduction of leucocyanidin to catechin) [1] | LAR enzyme activity (reduction of leucocyanidin to catechin) ([1]; listed as pET LAR317) | LAR enzyme activity (reduction of leucocyanidin to catechin) ([1]; listed as pET LAR382) | stability of LAR enzyme activity on storage [2] |
| --- | --- | --- | --- | --- |
| LAR317: Truncated recombinant LAR, amino acids 1-317 of SEQ ID NO: 29, with N-terminal RGS-6×His epitope, expressed in E. coli (protein, listed as Desmodium uncinatum, N-terminal RGS-6xHis tag) MTVSGAIPSMTKNRTLVVGGTGFIGQFITKASLGFGYPTFLLVRPGPVSPSKAVIIKTFQDKGAKVIYGVINDKECMEKILKEYEIDVVISLVGGARLLDQLTLLEAIKSVKTIKRFLPSEFGHDVDRTDPVEPGLTMYKEKRLVRRAVEEYGIPFTNICCNSIASWPYYDNCHPSQVPPPMDQFQIYGDGNTKAYFIDGNDIGKFTMKTIDDIRTLNKNVHFRPSSNCYSINELASLWEKKIGRTLPRFTVTADKLLAHAAENIIPESIVSSFTHDIFINGCQVNFSIDEHSDVEIDTLYPDEKFRSLDDCYEDFV | catalysed the reduction of [4-^3H]-2,3-trans-3,4-cis-leucocyanidin | LAR activity sufficient to convert all of the leucocyanidin substrate into catechin | – | – |
| LAR382: Full length recombinant D. uncinatum LAR polypeptide (SEQ ID NO: 29) with N-terminal T7 Tag, expressed in E. coli from pET3a (protein, listed as Desmodium uncinatum, N-terminal T7 tag) MTVSGAIPSMTKNRTLVVGGTGFIGQFITKASLGFGYPTFLLVRPGPVSPSKAVIIKTFQDKGAKVIYGVINDKECMEKILKEYEIDVVISLVGGARLLDQLTLLEAIKSVKTIKRFLPSEFGHDVDRTDPVEPGLTMYKEKRLVRRAVEEYGIPFTNICCNSIASWPYYDNCHPSQVPPPMDQFQIYGDGNTKAYFIDGNDIGKFTMKTIDDIRTLNKNVHFRPSSNCYSINELASLWEKKIGRTLPRFTVTADKLLAHAAENIIPESIVSSFTHDIFINGCQVNFSIDEHSDVEIDTLYPDEKFRSLDDCYEDFVPMVHDKIHAGKSGEIKIKDGKPLVQTGTIEEINKDIKTLVETQPNEEIKKDMKALVEAVPISAMG | catalysed the reduction of [4-^3H]-2,3-trans-3,4-cis-leucocyanidin | – | LAR activity sufficient to convert all of the leucocyanidin substrate into catechin | – |
| LAR: Leucoanthocyanidin reductase enzyme partially purified 2,360 fold from young leaves of Desmodium uncinatum (protein, listed as Desmodium uncinatum) MTVSGAIPSMTKNRTLVVGGTGFIGQFITKASLGFGYPTFLLVRPGPVSPSKAVIIKTFQDKGAKVIYGVINDKECMEKILKEYEIDVVISLVGGARLLDQLTLLEAIKSVKTIKRFLPSEFGHDVDRTDPVEPGLTMYKEKRLVRRAVEEYGIPFTNICCNSIASWPYYDNCHPSQVPPPMDQFQIYGDGNTKAYFIDGNDIGKFTMKTIDDIRTLNKNVHFRPSSNCYSINELASLWEKKIGRTLPRFTVTADKLLAHAAENIIPESIVSSFTHDIFINGCQVNFSIDEHSDVEIDTLYPDEKFRSLDDCYEDFVPMVHDKIHAGKSGEIKIKDGKPLVQTGTIEEINKDIKTLVETQPNEEIKKDMKALVEAVPISAMG | – | – | – | stable for up to one year |
